Results on three proteins are retold here after PMC9599917, “Reshaping the Binding Pocket of the Neurotransmitter:Solute Symporter (NSS) Family Transporter SLC6A14 (ATB^0,+) Selectively Reduces Access for Cationic Amino Acids and Derivatives” (Biomolecules, 2022).

Common to all, as to format: cell-based, Homo sapiens
Substrate in series [1]: N[C@@H](CO)C(=O)O
In words: two-electrode voltage clamp in oocytes (Km); radiolabelled uptake. Particulars: Na+ and Cl-. (In two-electrode clamp one electrode senses voltage and the other passes current.)

Substrate in series [2]: N=C(N)NCCC[C@H](N)C(=O)O
The series can be described thus: two-electrode voltage clamp in oocytes (Km); competition with [3H]serine uptake. Particulars: Na+ and Cl- substrate binding pocket, competes with serine; lost in V128F.

Substrate in series [3]: N=C(N)NCCC[C@H](N)C(=O)O
In words: two-electrode voltage clamp in oocytes (Km). The conditions noted are these: Na+ and Cl-.

Substrate in series [4]: N[C@@H](CO)C(=O)O
In words: two-electrode voltage clamp in oocytes (Km); radiolabelled uptake. Particulars: Na+ and Cl-. An excerpt: two-electrode voltage clamp in oocytes (Km); radiolabelled uptake on SLC6A14 (ATB0,+) | In SLC6A14-V128I, the affinity for serine increased by five-fold
This is another data set of the same source.

What is called Km is the concentration of substrate that gives half-maximal velocity.

B1: SLC6A14 (ATB0,+) (Homo sapiens) (protein)
chain: MDKLKCPSFFKCREKEKVSASSENFHVGENDENQDRGNWSKKSDYLLSMIGYAVGLGNVWRFPYLTYSNGGGAFLIPYAIMLALAGLPLFFLECSLGQFASLGPVSVWRILPLFQGVGITMVLISIFVTIYYNVIIAYSLYYMFASFQSELPWKNCSSWSDKNCSRSPIVTHCNVSTVNKGIQEIIQMNKSWVDINNFTCINGSEIYQPGQLPSEQYWNKVALQRSSGMNETGVIVWYLALCLLLAWLIVGAALFKGIKSSGKVVYFTALFPYVVLLILLVRGATLEGASKGISYYIGAQSNFTKLKEAEVWKDAATQIFYSLSVAWGGLVALSSYNKFKNNCFSDAIVVCLTNCLTSVFAGFAIFSILGHMAHISGKEVSQVVKSGFDLAFIAYPEALAQLPGGPFWSILFFFMLLTLGLDSQFASIETITTTIQDLFPKVMKKMRVPITLGCCLVLFLLGLVCVTQAGIYWVHLIDHFCAGWGILIAAILELVGIIWIYGGNRFIEDTEMMIGAKRWIFWLWWRACWFVITPILLIAIFIWSLVQFHRPNYGAIPYPDWGVALGWCMIVFCIIWIPIMAIIKIIQAKGNIFQRLISCCRPASNWGPYLEQHRGERYKDMVDPKKEADHEIPTVSGSRKPE
notes: human SLC6A14 expressed in Xenopus laevis oocytes
On to B1, for which the Km in series [1] worked out at 106 ± 5 µM; in series [2], 91 ± 11 µM.

B2: SLC6A14 (ATB0,+) (Homo sapiens; V128I) (protein)
chain: MDKLKCPSFFKCREKEKVSASSENFHVGENDENQDRGNWSKKSDYLLSMIGYAVGLGNVWRFPYLTYSNGGGAFLIPYAIMLALAGLPLFFLECSLGQFASLGPVSVWRILPLFQGVGITMVLISIFITIYYNVIIAYSLYYMFASFQSELPWKNCSSWSDKNCSRSPIVTHCNVSTVNKGIQEIIQMNKSWVDINNFTCINGSEIYQPGQLPSEQYWNKVALQRSSGMNETGVIVWYLALCLLLAWLIVGAALFKGIKSSGKVVYFTALFPYVVLLILLVRGATLEGASKGISYYIGAQSNFTKLKEAEVWKDAATQIFYSLSVAWGGLVALSSYNKFKNNCFSDAIVVCLTNCLTSVFAGFAIFSILGHMAHISGKEVSQVVKSGFDLAFIAYPEALAQLPGGPFWSILFFFMLLTLGLDSQFASIETITTTIQDLFPKVMKKMRVPITLGCCLVLFLLGLVCVTQAGIYWVHLIDHFCAGWGILIAAILELVGIIWIYGGNRFIEDTEMMIGAKRWIFWLWWRACWFVITPILLIAIFIWSLVQFHRPNYGAIPYPDWGVALGWCMIVFCIIWIPIMAIIKIIQAKGNIFQRLISCCRPASNWGPYLEQHRGERYKDMVDPKKEADHEIPTVSGSRKPE
notes: human SLC6A14-V128I expressed in Xenopus laevis oocytes
For the protein B2, the results for the Km in series [3] and in series [4] were 60 ± 8 µM and 20 ± 3 µM, respectively.

B3: SLC6A14 (ATB0,+) (Homo sapiens; V128F) (protein)
chain: MDKLKCPSFFKCREKEKVSASSENFHVGENDENQDRGNWSKKSDYLLSMIGYAVGLGNVWRFPYLTYSNGGGAFLIPYAIMLALAGLPLFFLECSLGQFASLGPVSVWRILPLFQGVGITMVLISIFFTIYYNVIIAYSLYYMFASFQSELPWKNCSSWSDKNCSRSPIVTHCNVSTVNKGIQEIIQMNKSWVDINNFTCINGSEIYQPGQLPSEQYWNKVALQRSSGMNETGVIVWYLALCLLLAWLIVGAALFKGIKSSGKVVYFTALFPYVVLLILLVRGATLEGASKGISYYIGAQSNFTKLKEAEVWKDAATQIFYSLSVAWGGLVALSSYNKFKNNCFSDAIVVCLTNCLTSVFAGFAIFSILGHMAHISGKEVSQVVKSGFDLAFIAYPEALAQLPGGPFWSILFFFMLLTLGLDSQFASIETITTTIQDLFPKVMKKMRVPITLGCCLVLFLLGLVCVTQAGIYWVHLIDHFCAGWGILIAAILELVGIIWIYGGNRFIEDTEMMIGAKRWIFWLWWRACWFVITPILLIAIFIWSLVQFHRPNYGAIPYPDWGVALGWCMIVFCIIWIPIMAIIKIIQAKGNIFQRLISCCRPASNWGPYLEQHRGERYKDMVDPKKEADHEIPTVSGSRKPE
notes: human SLC6A14-V128F expressed in Xenopus laevis oocytes
For the protein B3, the Km in series [1] is recorded as 142 ± 11 µM.
